Data: patent US20260273049A1 (ALLIGATOR BIOSCIENCE, published 2026)

Legend:
[1] = target: T1, human CEACAM5 (hCEACAM-5, #4128-CM-050, R&D Systems) (human, UniProt P06731 35-685); test: ELISA; antigen coated at 0.5 µg/mL, bsAb titrated, anti-human kappa-HRP, luminescence [3/7) Multi39]
T1 construct: Bought protein; also called Human CEACAM5-His; monomeric human CEACAM5-His
T1 sequence (looked up): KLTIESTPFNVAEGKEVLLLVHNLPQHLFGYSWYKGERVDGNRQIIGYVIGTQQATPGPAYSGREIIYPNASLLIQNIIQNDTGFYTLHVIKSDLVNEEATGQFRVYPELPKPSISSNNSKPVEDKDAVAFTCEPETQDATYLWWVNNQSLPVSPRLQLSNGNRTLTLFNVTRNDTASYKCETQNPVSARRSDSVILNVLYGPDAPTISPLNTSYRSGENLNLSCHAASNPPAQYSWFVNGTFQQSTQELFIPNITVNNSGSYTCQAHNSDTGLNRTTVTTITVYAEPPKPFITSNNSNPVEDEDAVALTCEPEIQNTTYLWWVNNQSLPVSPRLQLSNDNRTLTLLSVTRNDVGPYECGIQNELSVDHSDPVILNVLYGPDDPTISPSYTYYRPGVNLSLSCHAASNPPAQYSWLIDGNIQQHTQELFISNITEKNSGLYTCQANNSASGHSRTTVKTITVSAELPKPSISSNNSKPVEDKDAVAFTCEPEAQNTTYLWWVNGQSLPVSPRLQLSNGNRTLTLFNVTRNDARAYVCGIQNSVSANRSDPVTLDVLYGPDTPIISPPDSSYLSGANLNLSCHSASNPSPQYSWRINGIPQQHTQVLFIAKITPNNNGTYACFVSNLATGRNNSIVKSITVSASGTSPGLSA
Method: (§1) 96-well plates were coated with 0.5 μg/mL antigen, hCEACAM-1 (2244-CM-050, R&D Systems), hCEACAM-5 (4128-CM-050, R&D Systems), hCEACAM-6 (3934-CM-050, R&D Systems) or CEACAM-8 (9639-CM-050, R&D Systems) in PBS over night at 4° C. After washing in PBS/0.05% Tween 20 (PBST), the plates were blocked with PBST, 2% BSA for at least 30 minutes at room temperature before a second round of washing. RUBY bsAbs, diluted in PBST, 0.5% BSA, were then added and allowed to bind for at least 1 hour at room temperature. […] Finally, a final round of washing was performed and bound complexes detected using SuperSignal Pico Luminescent as substrate and luminescence signals were measured using Fluostar Optima.

[2] = target: human CD40 expressed on cells (CD40 reporter cells, HEK Blue CD40L cells, B cells, Raji cells) (human, UniProt P25942 21-277); test: cell-based or functional assay
[3] = target: T2, human CEACAM1 expressed on CHO cells (human, UniProt P13688 35-526); test: flow cytometry on CEACAM1-transfected CHO cells, fluorochrome-conjugated anti-human IgG [1/2) B]
T2 construct: whole, on cells; also called CHO-CEACAM1; CEACAM1 on cells
T2 sequence (looked up): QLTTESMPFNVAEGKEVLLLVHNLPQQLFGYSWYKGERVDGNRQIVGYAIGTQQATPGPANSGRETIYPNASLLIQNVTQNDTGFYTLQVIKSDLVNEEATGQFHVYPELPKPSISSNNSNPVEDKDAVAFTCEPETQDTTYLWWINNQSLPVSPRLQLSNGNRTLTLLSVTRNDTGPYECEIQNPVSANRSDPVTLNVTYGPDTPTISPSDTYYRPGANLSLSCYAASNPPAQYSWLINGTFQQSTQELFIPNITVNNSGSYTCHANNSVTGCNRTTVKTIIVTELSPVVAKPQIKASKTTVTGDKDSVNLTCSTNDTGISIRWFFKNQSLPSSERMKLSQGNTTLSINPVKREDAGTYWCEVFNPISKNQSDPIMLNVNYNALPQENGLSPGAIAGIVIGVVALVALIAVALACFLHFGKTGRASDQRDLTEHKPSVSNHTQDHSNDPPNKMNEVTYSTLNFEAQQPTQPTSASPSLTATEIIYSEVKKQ
Excerpt: The human CEACAM5 and CEACAM1 genes were cloned into pcDNA3.1, and the vector was subsequently stably transfected into CHO cells. […] Binding of the antibodies was detected using fluorochrome-conjugated anti-human IgG and analyzed using flow cytometry.

[4] = target: T3, CEACAM-8 (#9639-CM-050, R&D Systems) (UniProt P31997 35-320, limits assumed); test: ELISA; antigen coated at 0.5 µg/mL, bsAb titrated, anti-human kappa-HRP, luminescence [3/7) Multi40]
T3 construct: Bought protein
T3 sequence (looked up): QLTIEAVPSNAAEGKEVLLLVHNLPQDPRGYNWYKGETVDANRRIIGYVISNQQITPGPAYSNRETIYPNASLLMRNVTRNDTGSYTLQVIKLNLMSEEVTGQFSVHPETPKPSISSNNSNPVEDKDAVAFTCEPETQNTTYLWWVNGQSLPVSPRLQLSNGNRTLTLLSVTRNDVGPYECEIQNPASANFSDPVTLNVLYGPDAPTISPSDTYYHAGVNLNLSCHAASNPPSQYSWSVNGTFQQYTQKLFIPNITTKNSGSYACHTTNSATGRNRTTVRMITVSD
Method: as §1

[5] = target: T1, human CEACAM5 (hCEACAM-5, #4128-CM-050, …); test: dual target ELISA; hCEACAM-5 coated, bsAb titrated, detection with biotinylated hCD40-muIg and streptavidin-HRP, luminescence; signal needs both targets [1/2) B]
Method: as §1

[6] = target: T4, human CEACAM5 expressed on cells (CHO-CEACAM5; MKN45, LS174T tumor cells) (human, UniProt P06731 35-685, GPI anchor on the C-terminal residue (685); heavily N-glycosylated); test: flow cytometry on LS174T tumor cells (intermediate CEACAM5), fluorochrome-conjugated anti-human IgG [2/3) E]
T4 construct: also called CEACAM5 on cells; CEA expressed on cells
T4 sequence: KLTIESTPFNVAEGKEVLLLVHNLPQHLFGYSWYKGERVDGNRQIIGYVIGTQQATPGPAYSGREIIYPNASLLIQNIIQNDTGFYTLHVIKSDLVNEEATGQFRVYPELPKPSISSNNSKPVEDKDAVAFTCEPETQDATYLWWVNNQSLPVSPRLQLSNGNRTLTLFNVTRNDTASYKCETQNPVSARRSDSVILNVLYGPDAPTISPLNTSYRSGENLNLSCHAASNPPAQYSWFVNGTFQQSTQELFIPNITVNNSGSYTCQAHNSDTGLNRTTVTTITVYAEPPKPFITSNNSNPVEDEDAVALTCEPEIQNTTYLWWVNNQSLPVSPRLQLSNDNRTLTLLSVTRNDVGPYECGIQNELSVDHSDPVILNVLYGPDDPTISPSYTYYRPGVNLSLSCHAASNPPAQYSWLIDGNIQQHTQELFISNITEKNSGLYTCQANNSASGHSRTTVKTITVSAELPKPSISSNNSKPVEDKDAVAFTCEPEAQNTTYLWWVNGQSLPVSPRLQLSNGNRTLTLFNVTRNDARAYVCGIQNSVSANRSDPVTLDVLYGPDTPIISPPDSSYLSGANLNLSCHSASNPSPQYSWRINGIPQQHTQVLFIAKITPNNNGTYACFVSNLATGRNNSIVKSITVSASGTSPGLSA

human CD40 expressed on cells (CD40 reporter cells, HEK Blue CD40L cells, B cells, Raji cells), sequence (P25942 21-277): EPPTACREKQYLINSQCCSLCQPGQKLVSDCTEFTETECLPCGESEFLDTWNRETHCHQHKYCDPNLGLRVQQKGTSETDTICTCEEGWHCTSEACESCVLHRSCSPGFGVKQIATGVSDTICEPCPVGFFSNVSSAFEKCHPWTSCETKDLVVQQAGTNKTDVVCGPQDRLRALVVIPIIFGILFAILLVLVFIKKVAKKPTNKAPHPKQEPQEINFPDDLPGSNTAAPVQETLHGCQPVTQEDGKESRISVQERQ

B1: Multi39 (bispecific antibody)
heavy 1: not shown
light: not shown
heavy 2: EVQLLESGGGLVQPGGSLRLSCAASGFTFYDHAMSWVREAPGKGLEWVSAISGSYGSTGYADSVKGRFTISRDNSKNTLYLQMNSLRAEDTAVYYCARWGGWAGDIDYWGQGTLVTVSSASTKGPSVFPLAPSSKSTSGGTAALGCLVKDYFPEPVTVSWNSGALTSGVHTFPAVLQSSGLYSLTSVVEVPSSSLGTQTYICNVNHKPSNTKVDKKVEPKSC
notes: Optimized RUBY format; copies: 2 + 2 + 2
How did the “EC50 (read off the curve)” value [1] turn out when B1 was run?
The value was 1000 to 2000 pM.

B2: ffAC_05337 (bispecific antibody, human IgG1, kappa, L234A L235A)
heavy: not shown
light: DIQMTQSPSSLSASVGDRVTITCRASQSISSYLNWYQEKPGKAPKLLIYAASSLQSGVPSRFSGSGSGTDFTLTISSLQPEDFATYYCQQAGNPHTFGQGTKLEIKRTVAAPSVFIFPPSDEQLKSGTASVVCYLNNFYPREAKVQWKVDNALQSGNSQESVTEQDSKDSTYSLWSTLTLSKADYEKHKVYACEVTHQGLSSPVTKSFNRGEC
chain: EVQLLESGGGLVQPGGSLRLSCAASGFTFSTYGMHWVREAPGKGLEWLSYISGGSSYIFYADSVKGRFTISRDNSKNTLYLQMNSLRAEDTAVYYCARILRGGSGMDLWGQGTLVTVSSASTKGPSVFPLAPSSKSTSGGTAALGCLVKDYFPEPVTVSWNSGALTSGVHTFPAVLQSSGLYSLTSVVEVPSSSLGTQTYICNVNHKPSNTKVDKKVEPKSC
What does the source list for B2?
EC50 (nM), HEK Blue CD40L SEAP reporter, CHO-CEACAM5 crosslinking, 0 Raji sink cells/well [2]: 0.04 nM; EC50 (nM), HEK Blue CD40L SEAP reporter, CHO-CEACAM5 crosslinking, 10 000 Raji sink cells/well [2]: 0.08 nM; EC50 (nM), HEK Blue CD40L SEAP reporter, CHO-CEACAM5 crosslinking, 30 000 Raji sink cells/well [2]: 0.11 nM; EC50 (nM), HEK Blue CD40L SEAP reporter, CHO-CEACAM5 crosslinking, 90 000 Raji sink cells/well [2]: 0.41 nM

B3: Multi41 (bispecific antibody)
heavy 1: not shown
light: DIQMTQSPSSLSASVGDRVTITCRASQSISSYLNWYQEKPGKAPKLLIYAASSLQSGVPSRFSGSGSGTDFTLTISSLQPEDFATYYCQQWRSHLFTFGQGTKLEIKRTVAAPSVFIFPPSDEQLKSGTASVVCYLNNFYPREAKVQWKVDNALQSGNSQESVTEQDSKDSTYSLWSTLTLSKADYEKHKVYACEVTHQGLSSPVTKSFNRGEC
heavy 2: EVQLLESGGGLVQPGGSLRLSCAASGFTFSTYGMHWVREAPGKGLEWLSYISGGSSYIFYADSVKGRFTISRDNSKNTLYLQMNSLRAEDTAVYYCARILRGGSGMDLWGQGTLVTVSSASTKGPSVFPLAPSSKSTSGGTAALGCLVKDYFPEPVTVSWNSGALTSGVHTFPAVLQSSGLYSLTSVVEVPSSSLGTQTYICNVNHKPSNTKVDKKVEPKSC
notes: as for B1
How did the “EC50 (nM), HEK Blue CD40L SEAP reporter, CHO-CEACAM5 crosslinking, 0 Raji sink cells/well” value [2] turn out when B3 was run?
The value was 0.03 nM.

What about the “EC50 (nM), HEK Blue CD40L SEAP reporter, CHO-CEACAM5 crosslinking, 10 000 Raji sink cells/well” value [2] of the same binder?
The value was 0.06 nM.

And the “EC50 (nM), HEK Blue CD40L SEAP reporter, CHO-CEACAM5 crosslinking, 30 000 Raji sink cells/well” value [2]?
Its value is 0.13 nM.

And the “EC50 (nM), HEK Blue CD40L SEAP reporter, CHO-CEACAM5 crosslinking, 90 000 Raji sink cells/well” value [2]?
The value was 0.36 nM.

Does B3 bind [3]?
Result: no binding (tested: 400 nM)

B4: Multi40 (bispecific antibody)
heavy 1: not shown
light: DIQMTQSPSSLSASVGDRVTITCRASQSISSYLNWYQEKPGKAPKLLIYAASSLQSGVPSRFSGSGSGTDFTLTISSLQPEDFATYYCQQSSHGPLLTFGQGTKLEIKRTVAAPSVFIFPPSDEQLKSGTASVVCYLNNFYPREAKVQWKVDNALQSGNSQESVTEQDSKDSTYSLWSTLTLSKADYEKHKVYACEVTHQGLSSPVTKSFNRGEC
heavy 2: EVQLLESGGGLVQPGGSLRLSCAASGFTFSTYGMHWVREAPGKGLEWLSYISGGSSYIFYADSVKGRFTISRDNSKNTLYLQMNSLRAEDTAVYYCARILRGGSGMDLWGQGTLVTVSSASTKGPSVFPLAPSSKSTSGGTAALGCLVKDYFPEPVTVSWNSGALTSGVHTFPAVLQSSGLYSLTSVVEVPSSSLGTQTYICNVNHKPSNTKVDKKVEPKSC
notes: as for B1
What does the source list for B4?
binding result [4]: no binding (tested: 100 nM); EC50 (read off the curve) [5]: ~600 pM

B5: Multi42 (bispecific antibody, human IgG1, kappa, L234A L235A)
heavy: not shown
light: EIVLTQSPGTLSLSPGERATLSCRASQSVSSSYLAWYQEKPGQAPRLLIYGASSRATGIPDRFSGSGSGTDFTLTISRLEPEDFAVYYCQQYWYPLTFGQGTKLEIKRTVAAPSVFIFPPSDEQLKSGTASVVCYLNNFYPREAKVQWKVDNALQSGNSQESVTEQDSKDSTYSLWSTLTLSKADYEKHKVYACEVTHQGLSSPVTKSFNRGEC
chain: EVQLLESGGGLVQPGGSLRLSCAASGFTFSTYGMHWVREAPGKGLEWLSYISGGSSYIFYADSVKGRFTISRDNSKNTLYLQMNSLRAEDTAVYYCARILRGGSGMDLWGQGTLVTVSSASTKGPSVFPLAPSSKSTSGGTAALGCLVKDYFPEPVTVSWNSGALTSGVHTFPAVLQSSGLYSLTSVVEVPSSSLGTQTYICNVNHKPSNTKVDKKVEPKSC
For B5, which “EC50 (nM), HEK Blue CD40L SEAP reporter, CHO-CEACAM5 crosslinking, 0 Raji sink cells/well” value [2] is on record?
The value was 0.04 nM.

What about the “EC50 (nM), HEK Blue CD40L SEAP reporter, CHO-CEACAM5 crosslinking, 10 000 Raji sink cells/well” value [2] of the same binder?
The value was 0.06 nM.

And the “EC50 (nM), HEK Blue CD40L SEAP reporter, CHO-CEACAM5 crosslinking, 30 000 Raji sink cells/well” value [2]?
The value was 0.11 nM.

And the “EC50 (nM), HEK Blue CD40L SEAP reporter, CHO-CEACAM5 crosslinking, 90 000 Raji sink cells/well” value [2]?
The value was 0.36 nM.

B6: AC_05337 (bispecific antibody)
heavy 1: not shown
light: DIQMTQSPSSLSASVGDRVTITCRASQSISSYLNWYQEKPGKAPKLLIYAASSLQSGVPSRFSGSGSGTDFTLTISSLQPEDFATYYCQQAGNPHTFGQGTKLEIKRTVAAPSVFIFPPSDEQLKSGTASVVCYLNNFYPREAKVQWKVDNALQSGNSQESVTEQDSKDSTYSLWSTLTLSKADYEKHKVYACEVTHQGLSSPVTKSFNRGEC
heavy 2: EVQLLESGGGLVQPGGSLRLSCAASGFTFSTYGMHWVREAPGKGLEWLSYISGGSSYIFYADSVRGRFTISRDNSENALYLQMNSLRAEDTAVYYCARILRGGSGMDLWGQGTLVTVSSASTKGPSVFPLAPSSKSTSGGTAALGCLVKDYFPEPVTVSWNSGALTSGVHTFPAVLQSSGLYSLSSVVEVPSSSLGTQTYICNVNHKPSNTKVDKKVEPKSC
B6 was tested. Which “EC50 (read off the curve)” value [6] did it give?
The value was roughly 4000 pM.
